The target in test [1] is T1, GST-Pta1 (yeast, UniProt Q01329 1-785).
T1 sequence: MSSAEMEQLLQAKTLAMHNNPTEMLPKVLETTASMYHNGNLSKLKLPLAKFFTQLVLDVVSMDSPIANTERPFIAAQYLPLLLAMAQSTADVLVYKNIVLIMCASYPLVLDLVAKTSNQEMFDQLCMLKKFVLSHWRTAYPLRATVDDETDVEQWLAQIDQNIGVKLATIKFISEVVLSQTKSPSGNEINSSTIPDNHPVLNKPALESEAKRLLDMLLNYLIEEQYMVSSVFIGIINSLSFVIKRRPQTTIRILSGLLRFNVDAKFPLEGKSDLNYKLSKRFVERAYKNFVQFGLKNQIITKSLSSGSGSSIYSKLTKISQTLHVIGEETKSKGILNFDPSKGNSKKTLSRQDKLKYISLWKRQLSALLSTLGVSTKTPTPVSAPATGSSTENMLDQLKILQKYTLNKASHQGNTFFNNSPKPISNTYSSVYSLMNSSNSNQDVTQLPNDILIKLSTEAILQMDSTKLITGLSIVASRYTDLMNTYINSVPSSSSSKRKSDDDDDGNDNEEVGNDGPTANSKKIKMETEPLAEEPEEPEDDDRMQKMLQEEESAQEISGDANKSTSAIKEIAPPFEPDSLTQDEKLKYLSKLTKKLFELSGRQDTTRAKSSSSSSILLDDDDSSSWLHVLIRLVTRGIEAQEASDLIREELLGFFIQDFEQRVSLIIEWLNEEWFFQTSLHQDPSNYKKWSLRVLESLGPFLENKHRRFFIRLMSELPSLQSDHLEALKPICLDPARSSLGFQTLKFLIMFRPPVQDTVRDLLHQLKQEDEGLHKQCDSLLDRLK
Briefly: pull-down.

Test [2] concerns the target T2, GST-hTFIIB (human, UniProt Q00403 1-316).
T2 sequence: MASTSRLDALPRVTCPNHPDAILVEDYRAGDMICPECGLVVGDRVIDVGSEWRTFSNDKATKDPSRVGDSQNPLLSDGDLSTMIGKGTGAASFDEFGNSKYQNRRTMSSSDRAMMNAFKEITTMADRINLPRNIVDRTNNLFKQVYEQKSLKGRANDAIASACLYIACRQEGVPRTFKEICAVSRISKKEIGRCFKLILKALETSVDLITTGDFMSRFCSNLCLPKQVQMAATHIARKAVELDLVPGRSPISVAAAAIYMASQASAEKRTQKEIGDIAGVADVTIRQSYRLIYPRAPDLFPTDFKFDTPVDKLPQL
The test is described as follows: pull-down.

B1: Hat-hSsu72Δ1-12 (domain or fragment)
chain: SSNQNRSMEAHNILSKRGFSVRSFGTGTHVKLPGPAPDKPNVYDFKTTYDQMYNDLLRKDKELYTQNGILHMLDRNKRIKPRPERFQNCKDLFDLILTCEERVYDQVVEDLNSREQETCQPVHVVNVDIQDNHEEATLGAFLICELCQCIQHTEDMENEIDELLQEFEEKSGRTFLHTVCFY
Regarding B1, the binding result in test [1] and in test [2] was “binds” each time.

B2: Hat-hSsu72 (natural protein)
chain: MPSSPLRVAVVCSSNQNRSMEAHNILSKRGFSVRSFGTGTHVKLPGPAPDKPNVYDFKTTYDQMYNDLLRKDKELYTQNGILHMLDRNKRIKPRPERFQNCKDLFDLILTCEERVYDQVVEDLNSREQETCQPVHVVNVDIQDNHEEATLGAFLICELCQCIQHTEDMENEIDELLQEFEEKSGRTFLHTVCFY
For B2, the binding result in test [1] and in test [2] was “binds” throughout.

Source of the values: article PMC548335 (Nucleic Acids Research, 2005).
